Assay results taken from paper PMC6868016.

Columns and labels:
[1] = target: ACP-GluA1 (GluA1 tagged with the acyl carrier protein at its N-terminus) (mouse); assay: single-molecule fluorescence tracking (TIRF), colocalization durations, simultaneous two colours; living HEK293 cells, plasma membrane, TARP2-mGFP with ATTO594-labelled ACP-GluA1 or ACP-GluA2 monomers and homodimers; lifetimes corrected for photobleaching
[2] = target: ACP-GluA2 (GluA2 tagged with the acyl carrier protein at its N-terminus), P23819; assay: as above; conditions: remark: other sources report otherwise
ACP-GluA2 (GluA2 tagged with the acyl carrier protein at its N-terminus), P23819, sequence (P23819 25-883): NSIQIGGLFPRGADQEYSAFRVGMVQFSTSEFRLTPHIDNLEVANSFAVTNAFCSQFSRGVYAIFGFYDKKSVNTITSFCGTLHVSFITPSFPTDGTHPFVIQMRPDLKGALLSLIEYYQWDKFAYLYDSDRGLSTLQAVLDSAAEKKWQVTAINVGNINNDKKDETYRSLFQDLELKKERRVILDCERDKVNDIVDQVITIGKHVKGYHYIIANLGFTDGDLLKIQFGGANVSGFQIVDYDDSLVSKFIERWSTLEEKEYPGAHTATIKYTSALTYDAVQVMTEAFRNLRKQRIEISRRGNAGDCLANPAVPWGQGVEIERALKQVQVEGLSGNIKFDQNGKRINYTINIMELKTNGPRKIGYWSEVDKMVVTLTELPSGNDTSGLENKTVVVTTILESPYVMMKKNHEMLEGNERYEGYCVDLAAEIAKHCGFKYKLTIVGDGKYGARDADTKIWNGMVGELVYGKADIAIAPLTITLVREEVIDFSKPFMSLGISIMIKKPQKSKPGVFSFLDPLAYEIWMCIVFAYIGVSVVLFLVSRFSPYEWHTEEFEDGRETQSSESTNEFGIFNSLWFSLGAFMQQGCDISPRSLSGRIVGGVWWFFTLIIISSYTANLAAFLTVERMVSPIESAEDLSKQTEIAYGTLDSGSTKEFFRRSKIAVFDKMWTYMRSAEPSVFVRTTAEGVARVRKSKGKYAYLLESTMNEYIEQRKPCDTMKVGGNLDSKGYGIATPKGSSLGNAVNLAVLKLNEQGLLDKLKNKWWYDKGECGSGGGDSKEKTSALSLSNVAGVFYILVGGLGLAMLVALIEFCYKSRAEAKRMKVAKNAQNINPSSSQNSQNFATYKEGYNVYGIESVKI

ACP-GluA1 (GluA1 tagged with the acyl carrier protein at its N-terminus) (mouse), sequence (P23818 19-907): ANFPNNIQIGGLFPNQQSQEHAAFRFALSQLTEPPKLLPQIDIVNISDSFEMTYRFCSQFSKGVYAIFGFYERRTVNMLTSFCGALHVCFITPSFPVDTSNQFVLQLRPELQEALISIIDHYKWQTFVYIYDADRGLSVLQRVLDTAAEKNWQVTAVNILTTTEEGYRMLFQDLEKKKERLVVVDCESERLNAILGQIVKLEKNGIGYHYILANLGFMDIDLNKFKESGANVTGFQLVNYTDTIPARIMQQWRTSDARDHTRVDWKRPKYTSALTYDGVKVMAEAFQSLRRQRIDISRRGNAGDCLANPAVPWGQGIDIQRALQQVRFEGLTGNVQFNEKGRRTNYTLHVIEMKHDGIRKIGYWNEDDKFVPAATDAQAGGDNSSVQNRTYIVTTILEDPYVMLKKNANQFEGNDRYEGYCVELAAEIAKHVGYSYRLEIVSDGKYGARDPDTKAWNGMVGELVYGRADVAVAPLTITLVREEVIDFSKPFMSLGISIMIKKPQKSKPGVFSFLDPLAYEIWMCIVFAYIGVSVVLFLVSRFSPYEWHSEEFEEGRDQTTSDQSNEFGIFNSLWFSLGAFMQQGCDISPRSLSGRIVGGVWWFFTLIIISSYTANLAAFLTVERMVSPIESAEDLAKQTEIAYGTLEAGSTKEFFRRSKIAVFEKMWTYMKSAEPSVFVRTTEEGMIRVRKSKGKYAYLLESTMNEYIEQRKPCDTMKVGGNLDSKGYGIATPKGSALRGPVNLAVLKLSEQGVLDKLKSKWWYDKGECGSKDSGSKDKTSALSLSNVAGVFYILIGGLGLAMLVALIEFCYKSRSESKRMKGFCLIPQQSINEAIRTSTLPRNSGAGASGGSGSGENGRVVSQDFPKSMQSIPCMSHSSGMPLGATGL

Row | lifetime of binding (to GluA1 monomers and to GluA1 homodimers) [1] [ms] | lifetime of binding (to GluA2 monomers and to GluA2 homodimers) [2] [ms] | Binder
1 | 200 | – | TARP2-mGFP (transmembrane AMPA receptor regulatory protein 2 with mGFP fused to its C-terminus) (natural protein) MGLFDRGVQMLLTTVGAFAAFSLMTIAVGTDYWLYSRGVCKTKSVSENETSKKNEEVMTHSGLWRTCCLEGNFKGLCKQIDHFPEDADYEADTAEYFLRAVRASSIFPILSVILLFMGGLCIAASEFYKTRHNIILSAGIFFVSAGLSNIIGIIVYISANAGDPSKSDSKKNSYSYGWSFYFGALSFIIAEMVGVLAVHMFIDRHKQLRATARATDYLQASAITRIPSYRYRYQRRSRSSSRSTEPSHSRDASPVGVKGFNTLPSTEISMYTLSRDPLKAATTPTATYNSDRDNSFLQVHNCIQKDSKDSLHANTANRRTTPV
2 | – | 200 | TARP2-mGFP (transmembrane AMPA receptor regulatory protein 2 with mGFP fused to its C-terminus), O88602 1-323 (natural protein, here or on the partner: ATTO594 on the ACP tag (ATTO594-Coenzyme A with ACP-synthase)) MGLFDRGVQMLLTTVGAFAAFSLMTIAVGTDYWLYSRGVCKTKSVSENETSKKNEEVMTHSGLWRTCCLEGNFKGLCKQIDHFPEDADYEADTAEYFLRAVRASSIFPILSVILLFMGGLCIAASEFYKTRHNIILSAGIFFVSAGLSNIIGIIVYISANAGDPSKSDSKKNSYSYGWSFYFGALSFIIAEMVGVLAVHMFIDRHKQLRATARATDYLQASAITRIPSYRYRYQRRSRSSSRSTEPSHSRDASPVGVKGFNTLPSTEISMYTLSRDPLKAATTPTATYNSDRDNSFLQVHNCIQKDSKDSLHANTANRRTTPV
